Experimental data as given in the DeepSol protein solubility set.

experiment: soluble on expression in E. coli; label from the status in PepcDB or PDB records

Row | Sequence | soluble on expression in E. coli
1 | MNSTQSRRVGLYGTGRAAAQLVGAIEASPHTLTTAIVFFDEQAGQDIGTLTGGRATGITATTDLEGAIRSGDFDVLAYAGLKGEVLHRAMELCADSGVDLVHACFVHPRVKLDPEMYSRLQKRAEETGARIVGTGMLPGFWLDVLPALLSSALPAPVSIIGESRSDITAWGRGVLADEMGLGTLADGQPGPVGGVLHESAEMIADILGLTGYESKVYGGYVTAHAATEVAGIQISPGDRVGFDEAATVVHDGRERVRIAWKGLPKGSFEGYERSLTVTAIGGDGSECTLSITPALDPYPGTAARIVHAVGALGALPGGQHTPVQLGI | not soluble
2 | MNSTSIYILVALHPIITLTNMPNTAMEATELLKEIQKHDSQQAFRSLYDMYYDRFFRIAFYYLQRDEWAQEVILDVFTTLWNHRKSQLIPDDFNKYSYILIRNAALNYLEKEQRREASPLENMPEISSSNLSPEEQMMNEELFNIYENSLNELPERCRTIFIKVREEKQSYASVAEELNISPKTVDAQLQKAVTRLKEKINNYFRNRR | not soluble
3 | MNTESSPFVFNVGTLVRGSAVPASVQQTGPSPVRIGPAMIAIPENGDVTVNATITPLGDALMVDADVSAELSGECVRCLQHMAPRAQFHVNEVFALTEDFITGDDGDGEDDDVTVITGDTVDILQAVIDEAGMSLPFNPQCEGGCVQSDSDVPEPDGIAGETELVDPRWAGLEKFL | not soluble
4 | MNTKQSNSHSTPSTFEGAQIRQGKASQCKTLMVQGTTSDAGKTTLVAGLCRVFADLQVKVAPFKPQNMALNSAVTPCGGEIGRAQALQAKAARLALDVDFNPILLKPNSDTGAQVIVHGKALMHRSSSNMEASEYQDYKKVAMQAVLSSHQRLTQQYDLVVVEGAGSPAEINLRKGDIANMGFAEAVDCPVLIIADIDKGGVFAQLVGTLMLLSQSEQDRVVGFVINRFRGDIKLLESGLTWLEERTNKPVLGVLPYLHGLDISSEDALVTQQALV | not soluble
5 | MNVLRSGIVTMLLLAAFSVQAACTWPAWEQFKKDYISQEGRVIDPSDARKITTSEGQSYGMFSALAANDRAAFDNILDWTQNNLAQGSLKERLPAWLWGKKENSKWEVLDSNSASDGDVWMAWSLLEAGRLWKEQRYTDIGSALLKRIAREEVVTVPGLGSMLLPGKVGFAEDNSWRFNPSYLPPTLAQYFTRFGAPWTTLRETNQRLLLETAPKGFSPDWVRYEKDKGWQLKAEKTLISSYDAIRVYMWVGMMPDSDPQKARMLNRFKPMATFTEKNGYPPEKVDVATGKAQGKGPVGFSAAMLPFLQNRDAQAVQRQRVADNFPGSDAYYNYVLTLFGQGWDQHRFRFSTKGELLPDWGQECANSH | soluble
6 | MNVNAETEDATLLLDGLLQNVAIIRFDTNKKVTYANALFAEAMGYTEEEMLQLSHPDLCFPDFVQTASYKEMWTNLLAGQKFQNKIERKNARGERVWFEATYIPIIREETVVGVAKIATDIT | not soluble
7 | MNVTPWEVEGVIDYSKLIEEFGMQPFSEVLPEIDNPHILMRRGAIFGHRDYWRIIEAMQKKEPWAVMSGFMPSGLPHFGHKMTMDEIVWHQSAGGKAFVAIADMEAHSVRGLSWEKTRELGMLYIKSIIALGLREDAVIYFQSKSSHVKDLAFELSAEVNFSELRAIYGFNSDTSLAKMFVTAIQAADILHPQLSDFGGPKPVVVPVGADQDPHMRLTRDLAARISIFSFEPVEGGVRVRSRKGAEYLSSLRDLEFDKKIYEEHMDIFGEAEEIERAVRKIEVEIGGFAFIPPSSTYHRFTTGLTGGKMSSSKPESYISLLDPPEEGAKKVMKAFTGGRATAEEQRRLGGEPDRCVVFELYSFHLIDSDEELNQIEAECREGRLLCGKCKKMAAELVKSFLKEHQEKMEAVDLSNYTIIG | not soluble
8 | MNVVFAVKQYISKMIEDSGPGMKVLLMDKETTGIVSMVYTQSEILQKEVYLFERIDSQNREIMKHLKAICFLRPTKENVDYIIQELRRPKYTIYFIYFSNVISKSDVKSLAEADEQEVVAEVQEFYGDYIAVNPHLFSLNILGCCQGRNWDPAQLSRTTQGLTALLLSLKKCPMIRYQLSSEAAKRLAECVKQVITKEYELFEFRRTEVPPLLLILDRCDDAITPLLNQWTYQAMVHELLGINNNRIDLSRVPGISKDLREVVLSAENDEFYANNMYLNFAEIGSNIKNLMEDFQKKKPKEQQKLESIADMKAFVENYPQFKKMSGTVSKHVTVVGELSRLVSERNLLEVSEVEQELACQNDHSSALQNIKRLLQNPKVTEFDAARLVMLYALHYERHSSNSLPGLMMDLRNKGVSEKYRKLVSAVVEYGGKRVRGSDLFSPKDAVAITKQFLKGLKGVENVYTQHQPFLHETLDHLIKGRLKENLYPYLGPSTLRDRPQDIIVFVIGGATYEEALTVYNLNRTTPGVRIVLGGTTVHNTKSFLEEVLASGLHSRSKESSQVTSRSASRR | not soluble
